{
  "source": "patent US10942183B2",
  "about": "“Methods of detecting progesterone receptor and of detecting an expression level” (REGENTS OF THE UNIVERSITY OF MINNESOTA, priority 2017, dated 2021)",
  "tested_on": "T47D cells",
  "test": "Mammosphere formation in T47D cells",
  "type": "cell-based, human",
  "settings": "T47D cells, EGF 20 ng/ml, 14 days",
  "description": "Primary Mammospheres: Adherent cells were washed with PBS and dissociated enzymatically in 0.25% trypsin-EDTA (Invitrogen Corporation, Carlsbad, Calif.). Cells were sieved through a 40-μm sieve (BD FALCON, BD Biosciences, Bedford, Mass.) and analyzed microscopically for single-cellularity. Single cells were plated in ultra-low attachment plates (Corning, Inc., Corning, N.Y.) and cultured in a humid incubator. Cells were grown in a serum-free mammary epithelial basal medium (MEBM; Lonza Group, Basel, Switzerland) containing 1% B27 Supplement (Invitrogen Corporation, Carlsbad, Calif.), 1% penicillin-streptomycin (Invitrogen Corporation, Carlsbad, Calif.), 5 μg/ml insulin (Invitrogen Corporation, Carlsbad, Calif.), 20 ng/ml EGF (Sigma-Aldrich, St. Louis, Mo.), 1 ng/ml hydrocortisone (Sigma-Aldrich, St. Louis, Mo.), and 100 μM β-mercaptoethanol. […] Mammosphere Forming Efficiency (MFE) % was calculated by the number of mammospheres per well/number of cells seeded per well.\nSecondary Mammospheres: Primary mammospheres were collected by centrifugation (5 min, 1000 rpm), and dissociated enzymatically in 0.25% typsin-EDTA. Cells were sieved through a 40-μm tip strainer (Bel-Art SP Scienceware, South Wayne, N.J.) and analyzed microscopically for single-cellularity. […] Mammosphere Forming Efficiency (MFE) % was calculated by the number of mammospheres per well/number of cells seeded per well. […]",
  "data": [
    {"molecule": "EGF: growth factor in mammosphere culture media, 20 ng/ml (protein, UniProt P01133 23-1207, looked up, Pro-epidermal growth factor, growth factor in mammosphere culture media, 20 ng/ml) Pro-epidermal growth factor: PQHWSCPEGTLAGNGNSTCVGPAPFLIFSHGNSIFRIDTEGTNYEQLVVDAGVSVIMDFHYNEKRIYWVDLERQLLQRVFLNGSRQERVCNIEKNVSGMAINWINEEVIWSNQQEGIITVTDMKGNNSHILLSALKYPANVAVDPVERFIFWSSEVAGSLYRADLDGVGVKALLETSEKITAVSLDVLDKRLFWIQYNREGSNSLICSCDYDGGSVHISKHPTQHNLFAMSLFGDRIFYSTWKMKTIWIANKHTGKDMVRINLHSSFVPLGELKVVHPLAQPKAEDDTWEPEQKLCKLRKGNCSSTVCGQDLQSHLCMCAEGYALSRDRKYCEDVNECAFWNHGCTLGCKNTPGSYYCTCPVGFVLLPDGKRCHQLVSCPRNVSECSHDCVLTSEGPLCFCPEGSVLERDGKTCSGCSSPDNGGCSQLCVPLSPVSWECDCFPGYDLQLDEKSCAASGPQPFLLFANSQDIRHMHFDGTDYGTLLSQQMGMVYALDHDPVENKIYFAHTALKWIERANMDGSQRERLIEEGVDVPEGLAVDWIGRRFYWTDRGKSLIGRSDLNGKRSKIITKENISQPRGIAVHPMAKRLFWTDTGINPRIESSSLQGLGRLVIASSDLIWPSGITIDFLTDKLYWCDAKQSVIEMANLDGSKRRRLTQNDVGHPFAVAVFEDYVWFSDWAMPSVMRVNKRTGKDRVRLQGSMLKPSSLVVVHPLAKPGADPCLYQNGGCEHICKKRLGTAWCSCREGFMKASDGKTCLALDGHQLLAGGEVDLKNQVTPLDILSKTRVSEDNITESQHMLVAEIMVSDQDDCAPVGCSMYARCISEGEDATCQCLKGFAGDGKLCSDIDECEMGVPVCPPASSKCINTEGGYVCRCSEGYQGDGIHCLDIDECQLGEHSCGENASCTNTEGGYTCMCAGRLSEPGLICPDSTPPPHLREDDHHYSVRNSDSECPLSHDGYCLHDGVCMYIEALDKYACNCVVGYIGERCQYRDLKWWELRHAGHGQQQKVIVVAVCVVVLVMLLLLSLWGAHYYRTQKLLSKNPKNPYEESSRDVRSRRPADTEDGMSSCPQPWFVVIKEHQDLKNGGQPVAGEDGQAADGSMQPTSWRQEPQLCGMGTEQGCWIPVSSDKGSCPQVMERSFHMPSYGTQTLEGGVEKPHSLLSANPLWQQRALDPPHQMELTQ", "values": [
      {"measurement": "mammosphere formation on removal and add-back of EGF", "result": "clear requirement for growth factor signaling"}
    ]}
  ]
}
